Assay results published in patent publication US20070066551.

Experiments:
[1] = system: IgE (Homo sapiens), P01854-1; experiment: filter; details: DPBS with Ca/Mg, BSA
[2] = target: IL-23 (full length) (Homo sapiens) (UniProt Q9NPF7+P29460); experiment: filter; details: dRmY, DPBS with Ca/Mg, BSA, RT
Chain of IL-23 (full length) (Homo sapiens) (Q9NPF7 20-189, chain 1 of 2): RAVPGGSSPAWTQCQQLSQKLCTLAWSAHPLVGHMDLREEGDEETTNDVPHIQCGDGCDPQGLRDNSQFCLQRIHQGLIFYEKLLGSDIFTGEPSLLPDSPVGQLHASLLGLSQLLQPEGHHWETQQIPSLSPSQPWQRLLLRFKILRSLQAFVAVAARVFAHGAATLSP
Chain of IL-23 (full length) (Homo sapiens) (P29460 23-328, chain 2 of 2): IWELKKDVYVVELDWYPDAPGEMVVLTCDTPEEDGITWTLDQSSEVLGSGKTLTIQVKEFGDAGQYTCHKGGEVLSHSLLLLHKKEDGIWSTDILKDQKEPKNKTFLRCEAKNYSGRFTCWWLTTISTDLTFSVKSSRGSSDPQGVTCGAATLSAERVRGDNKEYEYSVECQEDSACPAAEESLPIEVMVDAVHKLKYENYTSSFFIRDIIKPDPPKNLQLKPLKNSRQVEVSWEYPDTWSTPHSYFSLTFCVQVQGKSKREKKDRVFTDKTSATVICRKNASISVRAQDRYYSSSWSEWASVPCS

Chain of IgE (Homo sapiens), P01854-1 (P01854 other isoform, or with tags, fused parts or gaps): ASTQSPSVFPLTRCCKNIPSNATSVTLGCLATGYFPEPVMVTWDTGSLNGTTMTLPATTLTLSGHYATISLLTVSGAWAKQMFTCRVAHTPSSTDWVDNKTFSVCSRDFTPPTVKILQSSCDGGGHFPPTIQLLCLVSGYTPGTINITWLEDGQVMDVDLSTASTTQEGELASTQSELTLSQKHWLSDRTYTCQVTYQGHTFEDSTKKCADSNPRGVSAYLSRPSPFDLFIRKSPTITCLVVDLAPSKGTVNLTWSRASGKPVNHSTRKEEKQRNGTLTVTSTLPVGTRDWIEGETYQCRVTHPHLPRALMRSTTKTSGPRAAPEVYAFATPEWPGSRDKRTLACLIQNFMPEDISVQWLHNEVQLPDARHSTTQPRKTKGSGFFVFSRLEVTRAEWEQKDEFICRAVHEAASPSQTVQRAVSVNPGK

AGCCUGGGGACCCAUGGGGGGCU [ARC599]
Kd ([1]; dRmY, 2'-deoxy-5mC at 11, ssDNA, tRNA, parent 20 nM, other run 10.4 nM (Table 13, parent 8.5 nM)): 20.5 nM

AGCCUGGGGACCCAUGGGGGGCU [ARC920]
Kd ([1]; dRmY, 2'-deoxy-5mC at 3 and 22, dC at 12, ssDNA, tRNA, parent 27 nM): 12.8 nM

AGCCUGGGGACCCAUGGGGGGCU [ARC916]
Kd ([1]; dRmY, 2'-deoxy-5mC at 3, dC at 12, ssDNA, tRNA, parent 27 nM): 13.7 nM

AGCCUGGGGACCCAUGGGGGGCU [ARC1565]
Kd ([1]; as ARC1335 with dI at 19, 3'-idT [19], RT): 1.4 nM

AGCCUGGGGACCCAUGGGGGGCU [ARC597]
Kd ([1]; dRmY, 2'-deoxy-5mC at 3, ssDNA, tRNA, parent 20 nM, other run 16 nM (Table 13, parent 8.5 nM)): 21.5 nM

RGCCUGGGGACCCAUGGGGGGCU [ARC2040]
Kd ([1]; as ARC1335 with 2'-OMe-2-aminopurine at 1, 3'-idT, RT, parent 2.8 nM): 18.7 nM

AGCCUGGRGACCCAUGGGGGGCU [ARC2044]
Kd ([1]; as ARC1335 with 2'-deoxy-2-aminopurine at 8, 3'-idT, RT, parent 2.8 nM): 3.9 nM

AGCCUGGGGACCCAUGGGGGGCU [ARC753]
Kd ([1]; dRmY, 2'-deoxy-5mC at 11 and 22, ssDNA, tRNA, parent 20 nM): 15 nM

AGCCUGGGGACCCAUGGGGGGCU [ARC925]
Kd ([1]; dRmY, 2'-deoxy-5mC at 3, dC at 12 and 22, ssDNA, tRNA, parent 13 nM): 8.1 nM

AGCCUGGGGACCCAUGGGGGGCU [ARC756]
Kd ([1]; dRmY, 2'-deoxy-5mC at 3, 11 and 22, ssDNA, tRNA, parent 20 nM): 14 nM

ACAGGCAAGUAAUUGGGGAGUGCGGGCGGGGUGU [ARC1650]
Kd ([2]; dI at 3rd dA (position 7) [7], parent 13 nM): 34 nM

AGCCUGGGGACCCAUGGGGGGCU [ARC768]
Kd ([1]; dRmY, PS between 13 and 14, 16 and 17, 20 and 21, RT, parent 12.6 nM): 3.5 nM

ACAGGCAAGUAAUUGGGGAGUGCGGGCGGGGUGU [ARC1648]
Kd ([2]; dI at 1st dA (position 1) [1], parent 13 nM): 12 nM

AGCCUGGGGACCCAUGGGGGGCU [ARC751]
Kd ([1]; dRmY, 2'-deoxy-5mC at 3 and 22, ssDNA, tRNA, parent 20 nM): 15 nM

AGCCUGGGGACCCAUGGGGGGCU [ARC588]
Kd ([1]; dRmY, PS between 20 and 21, RT, parent 12.6 nM): 5.3 nM

AGCCUGGGGACCCAUGGGGGGCU [ARC608]
Kd ([1]; dRmY, dC in place of sixth mC (position 22, per description; printed sequence shows mC), ssDNA, tRNA, RT, parent 14.6 nM): 7.9 nM

AGCCUGGGGACCCAUGGGGGGCU [ARC915]
Kd ([1]; dRmY, 2'-deoxy-5mC at 11, dC at 22, ssDNA, tRNA, parent 27 nM): 16.9 nM

AGCCUGGGGACCCAUGGGGGGCU [ARC1566]
Kd ([1]; as ARC1335 with dI at 20, 3'-idT [20], RT, other run 8 nM (Table 9, parent ARC1335 15 nM)): 0.1 nM

ACAGGCAAGUAANUGGGGAGUGCGGGCGGGGUGU [ARC1683]
Kd ([2]; 2'-OMe inosine for 2nd mU, 3'-idT (last t of SEQ), parent 9.8 nM): 4.8 nM

AGCCUGGGGACCCNUGGGGGGCU [ARC1560]
Kd ([1]; as ARC1335 with dI at 14, 3'-idT, RT, parent ARC1335 15 nM): 3 nM

AGCCUGGGGACCCAUGGGGGGCU [ARC445]
Kd ([1]; 2'-deoxy purines, 2'-OMe pyrimidines (dRmY), RT, other runs 12.6 nM (Table 10), with ssDNA and tRNA 14.6 (Table 8), 20 (Table 12), 8.5, 27 and 13 (Table 13)): 3 nM

AGCCUGGGGACCCAUGGGGGGCU [ARC926]
Kd ([1]; dRmY, 2'-deoxy-5mC at 11, dC at 12 and 22, ssDNA, tRNA, parent 13 nM): 5.5 nM

AGCCUGGGGACCCRUGGGGGGCU [ARC2047]
Kd ([1]; as ARC1335 with 2'-OMe-2-aminopurine at 14, 3'-idT, RT, parent 2.8 nM): 4.8 nM

AGCCUGGGGACCCAUGGGGGGCU [ARC702]
Kd ([1]; dRmY, PS between 16 and 17, 20 and 21, RT, parent 12.6 nM): 2.6 nM

ACAGGCAAGUAAUUGGGGAGUGCGGGCGGGGUGN [ARC1702]
Kd ([2]; 2'-OMe inosine for last mU, 3'-idT (last t of SEQ), parent 15 nM): 10 nM

AGCCUGGGGACCCAUGGGGGGCU [ARC1562]
Kd ([1]; as ARC1335 with dI at 16, 3'-idT [16], RT): 0.6 nM

AGCCUGGGGACCCNUGGGGNGCU [ARC1647]
Kd ([1]; as ARC1335 with dI at 14 and 20, 3'-idT, RT, parent ARC1335 15 nM): 1 nM

AGCCUGGGGACCCAUGGGGGGCU [ARC914]
Kd ([1]; dRmY, 2'-deoxy-5mC at 3, dC at 22, ssDNA, tRNA, parent 27 nM): 11.9 nM

AGCCUGGGGACCCAUGGGGGGCU [ARC918]
Kd ([1]; dRmY, 2'-deoxy-5mC at 22, dC at 12, ssDNA, tRNA, parent 27 nM): 14.6 nM

AGCCUGGGGACCCAUGGGGGGCU [ARC1564]
Kd ([1]; as ARC1335 with dI at 18, 3'-idT [18], RT): 0.5 nM

ACAGGCAAGUAAUUGGGGAGUGCGGGCGGGGUGU [ARC1653]
Kd ([2]; dI at 6th dA (position 12) [12], parent 13 nM): 25 nM

AGCCUGGGGACCCAUGGGGGGCU [ARC1335]
Kd ([1]; ARC445 with 2'-OMe purines at 1, 2, 7, 10, 14, 17, other purines 2'-deoxy, 2'-OMe pyrimidines, 3'-idT (last t of SEQ), RT, other runs 15 nM (Table 9), 2.8 nM (Table 11)): 0.3 nM

AGCCUGGGGACCCAUGGGGGGCU [ARC602]
Kd ([1]; dRmY, 2'-deoxy-5mC at 22, ssDNA, tRNA, parent 20 nM, other run 9 nM (Table 13, parent 8.5 nM)): 26 nM

AGCCUGGGGACCCAUGGGGGGCU [ARC767]
Kd ([1]; dRmY, PS between 12 and 13, 16 and 17, 20 and 21, RT, parent 12.6 nM): 2.7 nM

AGCCUGGGGACCCAUGGGGGGCU [ARC1548]
Kd ([1]; as ARC1335 with dI at 2, 3'-idT [dI at 2 (parent base G), other modifications as ARC1335, 3'-idT], RT): 3.3 nM

AGCCUGGGGACCCAUGGGGGGCU [ARC1563]
Kd ([1]; as ARC1335 with dI at 17, 3'-idT [17], RT): 2.2 nM

AGCCUGGGGACCCAUGGGGGGCU [ARC584]
Kd ([1]; dRmY, PS between 16 and 17, RT, parent 12.6 nM): 6.9 nM

RGCCUGGRGACCCRUGGGGGGCU [ARC2361]
Kd ([1]; as ARC1335 with 2'-OMe-2-aminopurine at 1 and 14 and 2'-deoxy-2-aminopurine at 8, 3'-idT, RT, parent 2.8 nM): 0.8 nM

AGCCUGGRGACCCRUGGGGGGCU [ARC2360]
Kd ([1]; as ARC1335 with 2'-deoxy-2-aminopurine at 8 and 2'-OMe-2-aminopurine at 14, 3'-idT, RT, parent 2.8 nM): 2.7 nM

AGCCUGGGGACCCAUGGGGGGCU [ARC921]
Kd ([1]; dRmY, 2'-deoxy-5mC at 11 and 22, dC at 12, ssDNA, tRNA, parent 13 nM): 8.5 nM
